Reference: publication PMC11167000, “Molecular mechanism of BMP signal control by Twisted gastrulation” (Nature Communications, 2024)

B1: human BMP7 (ligand, UniProt P18075 293-431, looked up)
chain: STGSKQRSQNRSKTPKNQEALRMANVAENSSSDQRQACKKHELYVSFRDLGWQDWIIAPEGYAAYYCEGECAFPLNSYMNATNHAIVQTLVHFINPETVPKPCCAPTQLNAISVLYFDDSSNVILKKYRNMVVRACGCH
notes: Bone morphogenetic protein 7 (BMP7), human; source: bought: Miltenyi Biotec
B2: human TWSG1 C-terminal domain (TWSG1 CTD, T85–F223) (domain or fragment)
chain: ETGTPPTSKSTVEELHEPIPSLFRALTEGDTQLNWNIVSFPVAEELSHHENLVSFLETVNQPHHQNVSVPSNNVHAPYSSDKEHMCTVVYFDDCMSIHQCKISCESMGASKYRWFHNACCECIGPECIDYGSKTVKCMNCMF
notes: residues of the vector between the secretion signal and the TWSG1 domain; Twisted gastrulation (TWSG1), human, C-terminal domain, residues T85–F223; The methods sentence on this construct says 'followed by ETG, TWSG1 NTD' where CTD must be meant; The structural description gives the CTD as Pro87–Phe223; source: expressed and purified from dialyzed media using IMAC followed by SEC as the …
B3: human Twisted gastrulation (TWSG1), full-length glycosylated TWSG1 (Cys26–Phe223) (natural protein)
chain: ETGCNKALCASDVSKCLIQELCQCRPGEGNCSCCKECMLCLGALWDECCDCVGMCNPRNYSDTPPTSKSTVEELHEPIPSLFRALTEGDTQLNWNIVSFPVAEELSHHENLVSFLETVNQPHHQNVSVPSNNVHAPYSSDKEHMCTVVYFDDCMSIHQCKISCESMGASKYRWFHNACCECIGPECIDYGSKTVKCMNCMF
modifications: Asn-linked glycans (predicted at Asn 52, 81 and 147); fully glycosylated for binding, cellular and SEC-MALS assays; cut down to one N-acetylglucosamine with endoglycosidase F1 for crystallization
notes: residues of the vector between the secretion signal and TWSG1; Twisted gastrulation (TWSG1), human, UniProt Q9GZX9, residues C26–F223; Monomer-dimer equilibrium in solution; also called full-length TWSG1; wild-type TWSG1; source: HEK-293T, transient transfection, secreted, purified (IMAC, SEC)
B4: human BMP2 (ligand, UniProt P12643 283-396, looked up)
chain: QAKHKQRKRLKSSCKRHPLYVDFSDVGWNDWIVAPPGYHAFYCHGECPFPLADHLNSTNHAIVQTLVNSVNSKIPKACCVPTELSAISMLYLDENEKVVLKNYQDMVVEGCGCR
notes: Bone morphogenetic protein 2 (BMP2), human; it speaks of BMP ligands in general as dimeric
B5: human CHRDL2 (A25–T429) (natural protein)
chain: ETGARARPDMFCLFHGKRYSPGESWHPYLEPQGLMYCLRCTCSEGAHVSCYRLHCPPVHCPQPVTEPQQCCPKCVEPHTPSGLRAPPKSCQHNGTMYQHGEIFSAHELFPSRLPNQCVLCSCTEGQIYCGLTTCPEPGCPAPLPLPDSCCQACKDEASEQSDEEDSVQSLHGVRHPQDPCSSDAGRKRGPGTPAPTGLSAPLSFIPRHFRPKGAGSTTVKIVLKEKHKKACVHGGKTYSHGEVWHPAFRAFGPLPCILCTCEDGRQDCQRVTCPTEYPCRHPEKVAGKCCKICPEDKADPGHSEISSTRCPKAPGRVLVHTSVSPSPDNLRRFALEHEASDLVEIYLWKLVKGIFHLTQIKKVRKQDFQKEAQHFRLLAGPHEGHWNVFLAQTLELKVTASPDKVTKT
modifications: Asn-linked glycan (predicted at Asn 114)
notes: residues of the vector between the secretion signal and CHRDL2; Chordin-like protein 2 (CHRDL2), human, UniProt Q6WN34, residues A25–T429; also called Chordin superfamily member CHRDL2; source: expressed and purified from dialyzed media using IMAC followed by SEC as the full-length TWSG1
B6: human Growth Differentiation Factor 5 (GDF5, A382–R501) (ligand)
chain: MAPLATRQGKRPSKNLKARCSRKALHVNFKDMGWDDWIIAPLEYEAFHCEGLCEFPLRSHLEPTNHAVIQTLMNSMDPESTPPTCCVPTRLSPISILFIDSANNVVYKQYEDMVVESCGCR
notes: N-terminal methionine of the expression construct; Growth differentiation factor 5 (GDF5), human, UniProt P43026, residues A382–R501, no tags; Disulfide-linked dimer
B7: human TWSG1 N-terminal domain (TWSG1 NTD, C26–S83) (domain or fragment)
chain: ETGCNKALCASDVSKCLIQELCQCRPGEGNCSCCKECMLCLGALWDECCDCVGMCNPRNYS
notes: residues of the vector between the secretion signal and TWSG1 NTD; Twisted gastrulation (TWSG1), human, N-terminal domain, residues C26–S83; Treated with endoglycosidase F1 in the purification described; The structural description gives the NTD as Cys26–Arg80; source: expressed and purified from dialyzed media similar to full-length TWSG1 (IMAC, HRV 3C cleavage, IMAC, SEC); not shown: mono Venus …

Experiments:
[1] = biological target: B3; assay: SPR; equilibrium binding, Biacore T200, 25 °C; BMP2, BMP7, GDF5 or CHRDL2 amine-coupled to a CM5 chip, TWSG1 proteins as analytes; 0.15 M NaCl, 20 mM HEPES pH 7.5, 2 mM CaCl2, 0.005% Tween 20; 1:1 binding isotherm; details: both partners purified
[2] = biological target: TWSG1 Ile40Ala (human, UniProt Q9GZX9 26-223, Ile40Ala, Asn-linked glycans (predicted Asn52, Asn81, Asn147; fully glycosylated, HEK-type expression without kifunensine); disulfide-rich. Parent construct inferred: the methods state that the C26-F223 constru); assay: SPR; as a1, BMP7 immobilized at higher level (7372 RU); details: both partners purified
[3] = biological target: B5; assay: SPR; equilibrium binding, Biacore T200, 25 °C; BMP2, BMP7, GDF5 or CHRDL2 amine-coupled to a CM5 chip, TWSG1 proteins as analytes; 0.15 M NaCl, 20 mM HEPES pH 7.5, 2 mM CaCl2, 0.005% Tween 20; 1:1 binding isotherm; details: both partners purified
[4] = biological target: B6; assay: as above; details: both partners purified
[5] = biological target: B1; assay: as above; details: both partners purified
[6] = biological target: B4; assay: as above; details: both partners purified
[7] = biological target: B5; assay: SEC-MALS; Superdex 200 HR 10/30, 150 mM NaCl, 10 mM HEPES pH 7.5, 2 mM CaCl2, 21 °C; proteins at 2 mg/ml, 0.1 ml per injection; details: both partners purified
[8] = biological target: the molecule itself; assay: as above
[9] = biological target: the molecule itself; assay: crystal structure; TWSG1 NTD and GDF5 mixed 1:1 mol:mol, crystallized with CaCl2; 1.96 Å

**Q.** Does B1 bind [1]?
**A.** binds

**Q.** And the Kd [2]?
**A.** 454000 nM

**Q.** Which results are given for B2?
**A.** Kd [3]: 460 nM; fold weaker than the TWSG1 NTD [4]: ~100 fold; fold weaker than the TWSG1 NTD [5]: ~100 fold; fold weaker than the TWSG1 NTD [6]: ~100 fold

**Q.** What does the source list for B3?
**A.** binding result [7]: binds; stoichiometry N [8]: 2

**Q.** Does B4 bind [1]?
**A.** binds

**Q.** Does B5 bind [8]?
**A.** binds

**Q.** Does B6 bind [1]?
**A.** binds

**Q.** Does B6 bind [9]?
**A.** binds

**Q.** How did the Kd [4] turn out when B7 was run?
**A.** 380 nM

**Q.** And the Kd [5]?
**A.** 94 nM

**Q.** And the Kd [6]?
**A.** 1010 nM
